We go through 4 molecules from PMC10624354 (Science Advances, 2023).

B4: HIS-tagged PIF4 (natural protein, Arabidopsis, UniProt Q8W2F3 1-430, looked up)
chain: MEHQGWSFEENYSLSTNRRSIRPQDELVELLWRDGQVVLQSQTHREQTQTQKQDHHEEALRSSTFLEDQETVSWIQYPPDEDPFEPDDFSSHFFSTMDPLQRPTSETVKPKSSPEPPQVMVKPKACPDPPPQVMPPPKFRLTNSSSGIRETEMEQYSVTTVGPSHCGSNPSQNDLDVSMSHDRSKNIEEKLNPNASSSSGGSSGCSFGKDIKEMASGRCITTDRKRKRINHTDESVSLSDAIGNKSNQRSGSNRRSRAAEVHNLSERRRRDRINERMKALQELIPHCSKTDKASILDEAIDYLKSLQLQLQVMWMGSGMAAAAASAPMMFPGVQPQQFIRQIQSPVQLPRFPVMDQSAIQNNPGLVCQNPVQNQIISDRFARYIGGFPHMQAATQMQPMEMLRFSSPAGQQSQQPSSVPTKTTDGSRLDH

In one test the target is T1, PIF4-NLuc (Arabidopsis, UniProt Q8W2F3 1-430).
T1 sequence (looked up): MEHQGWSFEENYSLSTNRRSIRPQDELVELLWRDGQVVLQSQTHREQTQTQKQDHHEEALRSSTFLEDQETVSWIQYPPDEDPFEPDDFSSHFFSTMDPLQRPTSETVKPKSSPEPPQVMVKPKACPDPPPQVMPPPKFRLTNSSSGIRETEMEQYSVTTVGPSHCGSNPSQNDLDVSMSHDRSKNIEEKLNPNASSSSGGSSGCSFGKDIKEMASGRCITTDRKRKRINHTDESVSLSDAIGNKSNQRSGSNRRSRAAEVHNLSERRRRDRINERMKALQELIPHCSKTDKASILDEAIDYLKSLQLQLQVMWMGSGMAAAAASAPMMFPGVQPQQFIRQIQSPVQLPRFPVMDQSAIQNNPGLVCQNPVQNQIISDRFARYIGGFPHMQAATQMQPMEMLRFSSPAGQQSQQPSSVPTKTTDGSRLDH
Briefly: split reporter.

The test “HIS-tagged PIF4” concerns the target B4. Kind of test: pull-down.
Another test addresses MBP-tagged HSFA1d (Arabidopsis, UniProt Q9LQM7 1-485). Kind of test: pull-down.

Chain of MBP-tagged HSFA1d (Q9LQM7 whole entry): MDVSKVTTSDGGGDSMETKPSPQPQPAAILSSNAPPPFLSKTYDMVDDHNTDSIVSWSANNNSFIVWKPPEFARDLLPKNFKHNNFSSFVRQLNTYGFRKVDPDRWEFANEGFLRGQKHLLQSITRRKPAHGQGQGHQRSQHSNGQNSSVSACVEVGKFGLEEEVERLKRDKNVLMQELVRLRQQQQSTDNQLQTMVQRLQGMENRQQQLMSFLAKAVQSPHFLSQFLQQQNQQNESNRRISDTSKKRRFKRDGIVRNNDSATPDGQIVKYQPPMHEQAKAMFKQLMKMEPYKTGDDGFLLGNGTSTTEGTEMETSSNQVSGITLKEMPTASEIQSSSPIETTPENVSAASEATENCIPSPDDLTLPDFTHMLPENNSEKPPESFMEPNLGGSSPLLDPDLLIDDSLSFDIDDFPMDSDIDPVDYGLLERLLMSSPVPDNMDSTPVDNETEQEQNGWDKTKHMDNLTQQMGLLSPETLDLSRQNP

B1: HSFA1d-CLuc (natural protein)
chain: not shown
B1: the “fold increase of luciferase activity at 28°C against 21°C” value with PIF4-NLuc is about 60 fold.

B2: MBP-HSFA1d-S2 (oligomerization domain HR-A/B and NLS, amino acids 145 to 260) (domain or fragment, Arabidopsis, UniProt Q9LQM7 145-260, looked up)
chain: GQNSSVSACVEVGKFGLEEEVERLKRDKNVLMQELVRLRQQQQSTDNQLQTMVQRLQGMENRQQQLMSFLAKAVQSPHFLSQFLQQQNQQNESNRRISDTSKKRRFKRDGIVRNND
Consider B2, for which the binding result with HIS-tagged PIF4 is reported as “binds”.

B3: MBP-HSFA1d-S1 (DNA binding domain, amino acids 1 to 144) (domain or fragment)
chain: not shown
For B3, the binding result in the test with HIS-tagged PIF4 is listed as “binds”.

Consider B4, for which the binding result with MBP-tagged HSFA1d is listed as “binds”.
